Test results as given in patent US20030138894A1 (Human Genome Sciences, published 2003).
Positions of bridges follow the written chain, without caps; N, C: chain ends. No end group written: not given here.

B1: DX-513 Ac-GDLHACRPVRGDPWWACTLGDPEGGG-NH2 (peptide)
peptide: Ac-GDLHACRPVRGDPWWACTLGDPEGGG-NH2
modifications: disulfide 6-17 (inferred); also: oxidized peptide
notes: synthetic, TN12 library; also called ACEH2-D8
B2: DX-512 Ac-GDRLHCKPQRQSPWMKCQHLDPEGGG-NH2 (peptide)
peptide: Ac-GDRLHCKPQRQSPWMKCQHLDPEGGG-NH2
modifications: disulfide 6-17 (inferred); also: oxidized peptide
notes: synthetic, TN12 library; also called B-H7
B3: ACE-2 binding polypeptide YSHCSPLRYYPWWKCTYP (peptide)
peptide: YSHCSPLRYYPWWKCTYP
modifications: not fully specified (N-terminus, C-terminus, bridges); cysteine pairing not given here
B4: ACE-2 binding polypeptide LHACRPVRGDPWWACTLG (peptide)
peptide: LHACRPVRGDPWWACTLG
modifications: disulfide 4-15 (inferred); not fully specified (N-terminus, C-terminus)
B5: ACE-2 binding polypeptide RLHCKPQRQSPWMKCQHL (peptide)
peptide: RLHCKPQRQSPWMKCQHL
modifications: not fully specified (N-terminus, C-terminus, bridges); cysteine pairing not given here
B6: ACE-2 binding polypeptide RYLCLPQRDKPWKFCNWF (peptide)
peptide: RYLCLPQRDKPWKFCNWF
modifications: not fully specified (N-terminus, C-terminus, bridges); cysteine pairing not given here
B7: DX-530 Ac-AGQKECKFGYPHCLPWGTEGGG-NH2 (peptide)
peptide: Ac-AGQKECKFGYPHCLPWGTEGGG-NH2
modifications: disulfide 6-13 (inferred); also: oxidized peptide
B8: DX-602 Ac-GDFSPCKALRHSPWWVCPSGDPEGGG-NH2 (peptide)
peptide: Ac-GDFSPCKALRHSPWWVCPSGDPEGGG-NH2
modifications: disulfide 6-17 (inferred); also: oxidized peptide
B9: DX-529 Ac-AGWEVCHWAPMMCKHGGTEGGG-NH2 (peptide)
peptide: Ac-AGWEVCHWAPMMCKHGGTEGGG-NH2
modifications: disulfide 6-13 (inferred); also: oxidized peptide
B10: DX-531 Ac-AGSDWCGTWNNPCFHQGTEGGG-NH2 (peptide)
peptide: Ac-AGSDWCGTWNNPCFHQGTEGGG-NH2
modifications: disulfide 6-13 (inferred); also: oxidized peptide
B11: DX-524 Ac-GSRIGCRDSRCNWWAPGEGGG-NH2 (peptide)
peptide: Ac-GSRIGCRDSRCNWWAPGEGGG-NH2
modifications: disulfide 6-11 (inferred); also: oxidized peptide
B12: DX-525 Ac-GSRGFCRDSSCSFPAPGEGGG-NH2 (peptide)
peptide: Ac-GSRGFCRDSSCSFPAPGEGGG-NH2
modifications: disulfide 6-11 (inferred); also: oxidized peptide
B13: DX-601 Ac-GDGFTCSPIRMFPWFRCDLGDPEGGG-NH2 (peptide)
peptide: Ac-GDGFTCSPIRMFPWFRCDLGDPEGGG-NH2
modifications: disulfide 6-17 (inferred); not fully specified; printed as Ac-GDGFTCSPIRMFPWFRCDLGDPEGGG-NH2
B14: DX-599 Ac-GDRYLCLPQRDKPWKFCNWFDPEGGG-NH2 (peptide)
peptide: Ac-GDRYLCLPQRDKPWKFCNWFDPEGGG-NH2
modifications: disulfide 6-17 (inferred); also: oxidized peptide

These binders were tested against T1, recombinant human-ACE-2 (human, UniProt Q9BYF1 18-740, limits assumed) (assay: fluorometric ACE-2 activity assay, M-2195 substrate).
T1 construct: Enzyme of the M-2195 fluorometric assay; also called rhACE-2
T1 sequence (Q9BYF1 18-740 limits assumed): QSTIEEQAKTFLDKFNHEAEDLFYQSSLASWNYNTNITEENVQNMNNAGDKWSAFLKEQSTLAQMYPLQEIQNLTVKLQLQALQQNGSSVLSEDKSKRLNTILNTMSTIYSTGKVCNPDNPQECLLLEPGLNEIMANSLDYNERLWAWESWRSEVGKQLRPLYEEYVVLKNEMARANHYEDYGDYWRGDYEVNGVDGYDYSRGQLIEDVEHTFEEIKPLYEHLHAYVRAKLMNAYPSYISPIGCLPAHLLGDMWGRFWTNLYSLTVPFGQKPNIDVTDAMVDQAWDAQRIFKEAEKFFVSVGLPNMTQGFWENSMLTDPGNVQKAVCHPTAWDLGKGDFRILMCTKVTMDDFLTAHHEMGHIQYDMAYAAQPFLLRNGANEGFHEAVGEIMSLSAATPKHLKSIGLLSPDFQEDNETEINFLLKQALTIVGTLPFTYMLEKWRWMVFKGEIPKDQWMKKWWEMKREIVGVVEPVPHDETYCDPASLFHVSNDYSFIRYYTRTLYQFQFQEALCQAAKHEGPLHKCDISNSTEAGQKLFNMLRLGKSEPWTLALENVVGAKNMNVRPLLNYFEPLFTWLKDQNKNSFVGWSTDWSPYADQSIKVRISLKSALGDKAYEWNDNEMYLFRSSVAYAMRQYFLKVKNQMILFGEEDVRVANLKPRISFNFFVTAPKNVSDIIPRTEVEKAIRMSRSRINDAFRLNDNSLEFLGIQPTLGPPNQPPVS
Procedure: Assay mixture was prepared first by pre-incubating (30 minutes, room temperature) the enzyme with the inhibitor (0.45 μg ([…]) ACE-2, 0-0.5 μM inhibitor rage, up to 90 […] volume with 100 mM TRIS pH 7.4, 0.1% Tween-20, 0.4% DMSO) in each well, in triplicate, by dispensing volumes using a repeat pipetter (Rainin) into a 96-well clear-bottom back plate (Costar, 07-200-590). […] Substrate stock (10 μL of 10× concentration) was added to each well to be tested in blocks of three vertically down the plate. The reaction was monitored on a Spectrafluor Plus (Tecan) at an excitation wavelength of 340 nm and an emission wavelength of 400 nm (+/−35 nm) every 30 seconds for a time period of 10 minutes.
B1 gave a Ki of 150 nM. In the case of B2, the Ki is reported as 150 nM.

Each binder was assayed against T2, FLAG-tagged ACE-2 target (human, UniProt Q9BYF1 18-740) (assay: phage ELISA on FLAG-ACE-2).
T2 construct: range 1-740; obtained from Human Genome Sciences, Inc; also called FLAG-ACE-2; tagged human ACE-2; not shown: FLAG tag
T2 sequence (Q9BYF1 18-740 limits assumed): as above
B3: binds. B4: binds. B5: binds. B6: binds.

What follows are binders tested against T1, recombinant human-ACE-2 (assay: cell-based or functional assay).
In the case of B1, the “IC50” value is reported as 90 nM. In the case of B7, the “IC50” value is reported as 30000 nM. B8 was tested, and the “IC50” value was 120 nM. With B2 the “IC50” value was 60 nM. In the case of B9, the “IC50” value is reported as 400 nM. In the case of B10, the “IC50” value is reported as 500 nM. B11 was tested, and the “IC50” value was 600 nM. B12 was tested, and the “IC50” value was 1000 nM. In the case of B13, the “IC50” value is reported as 68 nM. B14 was tested, and the “IC50” value was 140 nM.
